{"source": "the Human Domainome abundance scans (Beltran et al. 2025)", "parents": {"B1": {"name": "Receptor-interacting serine/threonine-protein kinase 2, residues 438 to 518; numbered along this chain, O43353 (parent)", "chain": "QWIQSKREDIVNQMTEACLNQSLDALLSRDLIMKEDYELVSTKPTRTSKVRQLLDTTDIQGEEFAKVIVQKLKDNKQMGLQ"}}, "note": "± gives the uncertainty stated by the source.", "data": [{"variants_of": "B1", "test": "abundance fitness (aPCA) (normalised: wild type 0, dead -1); higher = more abundant; growth selection in yeast, the domain comes from the species named", "conditions": "Homo sapiens", "values": [{"variant": "QWIQSKREDIVNQMTESCLNQSLDALLSRDLIMKEDYELVSTKPTRTSKVRQLLDTTDIQGEEFAKVIVQKLKDNKQMGLQ", "abundance fitness": "-0.117 ± 0.056"}, {"variant": "QWIQSKREDIVNQMTENCLNQSLDALLSRDLIMKEDYELVSTKPTRTSKVRQLLDTTDIQGEEFAKVIVQKLKDNKQMGLQ", "abundance fitness": "-0.166 ± 0.17"}, {"variant": "QWIQSKREDIVNQMTECCLNQSLDALLSRDLIMKEDYELVSTKPTRTSKVRQLLDTTDIQGEEFAKVIVQKLKDNKQMGLQ", "abundance fitness": "-0.107 ± 0.074"}, {"variant": "QWIQSKREDIVNQMTEGCLNQSLDALLSRDLIMKEDYELVSTKPTRTSKVRQLLDTTDIQGEEFAKVIVQKLKDNKQMGLQ", "abundance fitness": "-0.175 ± 0.055"}, {"variant": "QWIQSKREDIVNQMTEFCLNQSLDALLSRDLIMKEDYELVSTKPTRTSKVRQLLDTTDIQGEEFAKVIVQKLKDNKQMGLQ", "abundance fitness": "-0.839 ± 0.16"}, {"variant": "QWIQSKREDIVNQMTEYCLNQSLDALLSRDLIMKEDYELVSTKPTRTSKVRQLLDTTDIQGEEFAKVIVQKLKDNKQMGLQ", "abundance fitness": "-0.137 ± 0.12"}, {"variant": "QWIQSKREDIVNQMTEVCLNQSLDALLSRDLIMKEDYELVSTKPTRTSKVRQLLDTTDIQGEEFAKVIVQKLKDNKQMGLQ", "abundance fitness": "0.004 ± 0.067"}, {"variant": "QWIQSKREDIVNQMTEHCLNQSLDALLSRDLIMKEDYELVSTKPTRTSKVRQLLDTTDIQGEEFAKVIVQKLKDNKQMGLQ", "abundance fitness": "-0.043 ± 0.11"}, {"variant": "QWIQSKREDIVNQMTEMCLNQSLDALLSRDLIMKEDYELVSTKPTRTSKVRQLLDTTDIQGEEFAKVIVQKLKDNKQMGLQ", "abundance fitness": "-0.25 ± 0.16"}, {"variant": "QWIQSKREDIVNQMTEICLNQSLDALLSRDLIMKEDYELVSTKPTRTSKVRQLLDTTDIQGEEFAKVIVQKLKDNKQMGLQ", "abundance fitness": "-0.569 ± 0.21"}, {"variant": "QWIQSKREDIVNQMTELCLNQSLDALLSRDLIMKEDYELVSTKPTRTSKVRQLLDTTDIQGEEFAKVIVQKLKDNKQMGLQ", "abundance fitness": "-0.186 ± 0.068"}, {"variant": "QWIQSKREDIVNQMTEDCLNQSLDALLSRDLIMKEDYELVSTKPTRTSKVRQLLDTTDIQGEEFAKVIVQKLKDNKQMGLQ", "abundance fitness": "0.042 ± 0.11"}, {"variant": "QWIQSKREDIVNQMTEWCLNQSLDALLSRDLIMKEDYELVSTKPTRTSKVRQLLDTTDIQGEEFAKVIVQKLKDNKQMGLQ", "abundance fitness": "-0.485 ± 0.1"}, {"variant": "QWIQSKREDIVNQMTETCLNQSLDALLSRDLIMKEDYELVSTKPTRTSKVRQLLDTTDIQGEEFAKVIVQKLKDNKQMGLQ", "abundance fitness": "0.131 ± 0.083"}, {"variant": "QWIQSKREDIVNQMTEPCLNQSLDALLSRDLIMKEDYELVSTKPTRTSKVRQLLDTTDIQGEEFAKVIVQKLKDNKQMGLQ", "abundance fitness": "-0.33 ± 0.057"}, {"variant": "QWIQSKREDIVNQMTEKCLNQSLDALLSRDLIMKEDYELVSTKPTRTSKVRQLLDTTDIQGEEFAKVIVQKLKDNKQMGLQ", "abundance fitness": "-0.072 ± 0.2"}, {"variant": "QWIQSKREDIVNQMTEQCLNQSLDALLSRDLIMKEDYELVSTKPTRTSKVRQLLDTTDIQGEEFAKVIVQKLKDNKQMGLQ", "abundance fitness": "0.076 ± 0.088"}, {"variant": "QWIQSKREDIVNQMCEACLNQSLDALLSRDLIMKEDYELVSTKPTRTSKVRQLLDTTDIQGEEFAKVIVQKLKDNKQMGLQ", "abundance fitness": "-0.877 ± 0.16"}, {"variant": "QWIQSKREDIVNQMAEACLNQSLDALLSRDLIMKEDYELVSTKPTRTSKVRQLLDTTDIQGEEFAKVIVQKLKDNKQMGLQ", "abundance fitness": "-0.645 ± 0.11"}, {"variant": "QWIQSKREDIVNQMPEACLNQSLDALLSRDLIMKEDYELVSTKPTRTSKVRQLLDTTDIQGEEFAKVIVQKLKDNKQMGLQ", "abundance fitness": "-0.492 ± 0.08"}, {"variant": "QWIQSKREDIVNQMYEACLNQSLDALLSRDLIMKEDYELVSTKPTRTSKVRQLLDTTDIQGEEFAKVIVQKLKDNKQMGLQ", "abundance fitness": "-0.946 ± 0.31"}, {"variant": "QWIQSKREDIVNQMIEACLNQSLDALLSRDLIMKEDYELVSTKPTRTSKVRQLLDTTDIQGEEFAKVIVQKLKDNKQMGLQ", "abundance fitness": "-1.12 ± 0.34"}, {"variant": "QWIQSKREDIVNQMSEACLNQSLDALLSRDLIMKEDYELVSTKPTRTSKVRQLLDTTDIQGEEFAKVIVQKLKDNKQMGLQ", "abundance fitness": "0.158 ± 0.042"}, {"variant": "QWIQSKREDIVNQMDEACLNQSLDALLSRDLIMKEDYELVSTKPTRTSKVRQLLDTTDIQGEEFAKVIVQKLKDNKQMGLQ", "abundance fitness": "-0.152 ± 0.11"}, {"variant": "QWIQSKREDIVNQMKEACLNQSLDALLSRDLIMKEDYELVSTKPTRTSKVRQLLDTTDIQGEEFAKVIVQKLKDNKQMGLQ", "abundance fitness": "-0.736 ± 0.24"}, {"variant": "QWIQSKREDIVNQMLEACLNQSLDALLSRDLIMKEDYELVSTKPTRTSKVRQLLDTTDIQGEEFAKVIVQKLKDNKQMGLQ", "abundance fitness": "-0.75 ± 0.12"}, {"variant": "QWIQSKREDIVNQMREACLNQSLDALLSRDLIMKEDYELVSTKPTRTSKVRQLLDTTDIQGEEFAKVIVQKLKDNKQMGLQ", "abundance fitness": "-0.937 ± 0.11"}, {"variant": "QWIQSKREDIVNQMQEACLNQSLDALLSRDLIMKEDYELVSTKPTRTSKVRQLLDTTDIQGEEFAKVIVQKLKDNKQMGLQ", "abundance fitness": "-0.126 ± 0.14"}, {"variant": "QWIQSKREDIVNQMWEACLNQSLDALLSRDLIMKEDYELVSTKPTRTSKVRQLLDTTDIQGEEFAKVIVQKLKDNKQMGLQ", "abundance fitness": "-1.05 ± 0.21"}, {"variant": "QWIQSKREDIVNQMNEACLNQSLDALLSRDLIMKEDYELVSTKPTRTSKVRQLLDTTDIQGEEFAKVIVQKLKDNKQMGLQ", "abundance fitness": "-0.518 ± 0.093"}, {"variant": "QWIQSKREDIVNQMHEACLNQSLDALLSRDLIMKEDYELVSTKPTRTSKVRQLLDTTDIQGEEFAKVIVQKLKDNKQMGLQ", "abundance fitness": "-1.13 ± 0.35"}, {"variant": "QWIQSKREDIVNQMGEACLNQSLDALLSRDLIMKEDYELVSTKPTRTSKVRQLLDTTDIQGEEFAKVIVQKLKDNKQMGLQ", "abundance fitness": "-0.566 ± 0.071"}, {"variant": "QWIQSKREDIVNQMEEACLNQSLDALLSRDLIMKEDYELVSTKPTRTSKVRQLLDTTDIQGEEFAKVIVQKLKDNKQMGLQ", "abundance fitness": "-0.767 ± 0.27"}, {"variant": "QWIQSKREDIVNQMVEACLNQSLDALLSRDLIMKEDYELVSTKPTRTSKVRQLLDTTDIQGEEFAKVIVQKLKDNKQMGLQ", "abundance fitness": "-0.777 ± 0.11"}]}]}
